Test results reported in patent US20080286311A1.
Values belong to the molecule of their own block, whether it stands above or below them.

Assays:
[1] = target: basophils from house dust mite allergic patients
[2] = target: basophils (granulocytes) from Phl p 12-allergic patients
[3] = target: serum IgE of profilin-sensitised (Phl p 12-allergic) patients; assay: fluid phase inhibition: sera of six patients preincubated with 10 µg MP12, then ELISA on plate-bound Phl p 12
[4] = target: serum IgE of profilin-sensitised (Phl p 12-allergic) patients; assay: fluid phase inhibition: sera of six patients preincubated with 10 µg Phl p 12, then ELISA on plate-bound Phl p 12

CD 203c expression on basophils [1]: 10 fold reduced
Molecule: rDer p 2 hybrid (aa 54-129+1-53) (from UniProt P49278)

histamine release (fold reduction) [2]: 1000
B1: MP12 (reshuffled Phl p 12 derivative) (protein)
chain: MEPGAVIRGKKGAGGITIKKTGQALVGIYDEPMTPGQCNMVVERLGDYLVEQGMMSWQTYVDEHLMCEIEGHHLASAAILGHDGTVWAQSADFPQFKPEEITGIMKDFDEPGHLAPTGMFVAGAKYMVIQGHHHHHH
mean % inhibition of IgE binding to Phl p 12 [3]: 31.2%

B2: Phl p 12 wild-type (timothy grass pollen profilin) (protein)
chain: MSWQTYVDEHLMCEIEGHHLASAAILGHDGTVWAQSADFPQFKPEEITGIMKDFDEPGHLAPTGMFVAGAKYMVIQGEPGAVIRGKKGAGGITIKKTGQALVVGIYDEPMTPGQCNMVVERLGDYLVEQGM
mean % inhibition of IgE binding to Phl p 12 [4]: 86%
